# Assay results: article PMC10457294 (2023)
# B1: mouse B7.1 ectodomain fused to human Fc (Fc fusion)
# chain: VDEQLSKSVKDKVLLPCRYNSPHEDESEDRIYWQKHDKVVLSVIAGKLKVWPEYKNRTLYDNTTYSLIILGLVLSDRGTYSCVVQKKERGTYEVKHLALVKLSIKADFSTPNITESGNPSADTKRITCFASGGFPKPRFSWLENGRELPGINTTISQDPESELYTISSQLDFNTTRNHTIKCLIKYGDAHVSEDFTWEKPPEDPPDSK
# B2: mouse B7.2 ectodomain fused to human Fc (Fc fusion)
# chain: VSVETQAYFNGTAYLPCPFTKAQNISLSELVVFWQDQQKLVLYEHYLGTEKLDSVNAKYLGRTSFDRNNWTLRLHNVQIKDMGSYDCFIQKKPPTGSIILQQTLTELSVIANFSEPEIKLAQNVTGNSGINLTCTSKQGHPKPKKMYFLITNSTNEYGDNMQISQDNVTELFSISNSLSLSFPDGVWHMTVVCVLETESMKISSKPLNFTQEFPSPQTYWKE
# B3: human B7.1 ectodomain fused to human Fc (Fc fusion)
# chain: VIHVTKEVKEVATLSCGHNVSVEELAQTRIYWQKEKKMVLTMMSGDMNIWPEYKNRTIFDITNNLSIVILALRPSDEGTYECVVLKYEKDAFKREHLAEVTLSVKADFPTPSISDFEIPTSNIRRIICSTSGGFPEPHLSWLENGEELNAINTTVSQDPETELYAVSSKLDFNMTTNHSFMCLIKYGHLRVNQTFNWNTT
# B4: human B7.1 ectodomain, His-tagged (domain or fragment)
# chain: B3 chain
# B5: human B7.2 ectodomain, His-tagged (domain or fragment)
# chain: LKIQAYFNETADLPCQFANSQNQSLSELVVFWQDQENLVLNEVYLGKEKFDSVHSKYMGRTSFDSDSWTLRLHNLQIKDKGLYQCIIHHKKPTGMIRIHQMNSELSVLANFSQPEIVPISNITENVYINLTCSSIHGYPEPKKMSVLLRTKNSTIEYDGVMQKSQDNVTELYDVSISLSVSFPDVTSNMTIFCILETDKTRLLSSPFSIELED
# B6: human B7.2 ectodomain fused to human Fc (Fc fusion)
# chain: B5 chain
# How the values were obtained:
# Experiment in all cases: BLI
# [1] = biological target: T1, CPXV M2 (cowpox virus M2), recombinant, His-tagged (cowpox virus, UniProt Q8QN22 18-220)
# T1 chain: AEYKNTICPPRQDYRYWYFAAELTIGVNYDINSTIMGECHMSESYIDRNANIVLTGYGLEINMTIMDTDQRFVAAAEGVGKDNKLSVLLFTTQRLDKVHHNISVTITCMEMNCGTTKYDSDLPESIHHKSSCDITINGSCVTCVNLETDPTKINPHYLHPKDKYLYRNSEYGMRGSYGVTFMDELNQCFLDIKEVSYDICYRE
# [2] = biological target: T2, MPXV M2 (monkeypox virus M2 protein), His-tagged, wild type (monkeypox virus (Clade I), UniProt Q8V554 18-220)
# [3] = biological target: T1, CPXV M2 (cowpox virus M2), recombinant, …
# [4] = biological target: T2, MPXV M2 (monkeypox virus M2 protein), …; remark: listed apart in the source
# [5] = biological target: MPXV Bio-M2 (site-specifically biotinylated MPXV Avi-M2) (monkeypox virus (Clade I), UniProt Q8V554 18-220)
Binder,koff [1],koff [2],Kd [3],Kd [4],koff [5]
B1,0.000109 s⁻¹,2.92e-05 s⁻¹,1.48 nM,0.243 nM,–
B2,0.000363 s⁻¹,0.689 s⁻¹,8 nM,13600 nM,–
B3,–,2.91e-05 s⁻¹,–,–,–
B4,–,–,–,–,0.00676 s⁻¹
B5,–,–,–,–,0.0334 s⁻¹
B6,–,9.75e-06 s⁻¹,–,–,–
